The values below come from US20210284725A1 (Genentech, published 2021).

Sequences and labels used below:
B1: 1E1v8 Fab (Fab, V domains shown)
VH: EVQLVESGGGLVQPGGSLRLSCAASGFTFNNYWMTWIRQAPGKGLEWVASITYTGGGTYYPDSVKGRFTISRDDAKSSLYLQMNSLRAEDTAVYYCTRANYYYNTYGGFPYWGQGTLVTVSS
VL: DIQMTQSPSSLSASVGDRVTITCLASEGFSNDLAWYQQKPGKSPKLLIYAASRLQDGVPSRFSGSGSGTDFTLTISSLQPEDFATYFCQQGSKYPLTFGGGTKVEIK
notes: also called 1E1v8 human Fab; anti-IL-33 1E1v8 Fab
B2: 1E1v10 (antibody, human IgG1, V domains shown)
VH: B1 VH with I37V
VL: B1 VL with S43A, L46S
notes: Humanized 1E1 variant, human IgG1 backbone, expressed in Expi293F
B3: ch1E1 (antibody, V domains shown)
VH: B1 VH with G16T, R19K, A23L, V48I, S78T, A88S, V93T
VL: DIQMTQSPASLSASLGETVSIECLASEGFSNDLAWYQQKSGKSPQLLIYAASRLQDGVPSRFSGSGSGTRFSLKISGMQPEDEADYFCQQGSKYPLTFGSGTKLEIKR
B4: 1E1v6 (antibody, human IgG1, V domains shown)
VH: B1 VH with I37V, S77N
VL: B1 VL
notes: as for B2
B5: 1E1v12 (antibody, human IgG1, V domains shown)
VH: B1 VH with I37V, D74N
VL: B1 VL with S43A, L46S
notes: as for B2
B6: 1E1v3 (antibody, human IgG1, V domains shown)
VH: B1 VH with I37V, D74N, S77N
VL: B1 VL
notes: as for B2
B7: 1E1v19 (antibody, human IgG1, V domains shown)
VH: B1 VH with V48I
VL: B1 VL with S43A, L46S, F87Y
notes: as for B2
B8: 1E1v22 (antibody, human IgG1, V domains shown)
VH: B1 VH with I37V, D74N
VL: B1 VL with S43A, L46S, F87Y
notes: as for B2
B9: 1E1v21 (antibody, human IgG1, V domains shown)
VH: B1 VH with I37V, S77N
VL: B1 VL with S43A, L46S, F87Y
notes: as for B2
B10: 1E1v9 (antibody, human IgG1, V domains shown)
VH: B1 VH with V48I
VL: B1 VL with S43A, L46S
notes: as for B2
B11: 1E1v11 (antibody, human IgG1, V domains shown)
VH: B1 VH with I37V, S77N
VL: B1 VL with S43A, L46S
notes: as for B2
B12: 1E1v14 (antibody, human IgG1, V domains shown)
VH: B1 VH with V48I
VL: B1 VL with Y36F, S43A, L46S
notes: as for B2
B13: 1E1v1 (antibody, human IgG1, V domains shown)
VH: B1 VH with I37V, D74N, S77N
VL: B1 VL with Y36F, S43A, L46S, F87Y
notes: as for B2
B14: 1E1v20 (antibody, human IgG1, V domains shown)
VH: B1 VH with I37V
VL: B1 VL with S43A, L46S, F87Y
notes: as for B2
B15: 1E1v7 (antibody, human IgG1, V domains shown)
VH: B1 VH with I37V, D74N
VL: B1 VL
notes: as for B2
B16: 1E1v16 (antibody, human IgG1, V domains shown)
VH: B1 VH with I37V, S77N
VL: B1 VL with Y36F, S43A, L46S
notes: as for B2
B17: 1E1v2 (antibody, human IgG1, V domains shown)
VH: B1 VH with V48I
VL: B1 VL with Y36F, S43A, L46S, F87Y
notes: as for B2
B18: 1E1v5 (antibody, human IgG1, V domains shown)
VH: B1 VH with I37V
VL: B1 VL
notes: as for B2
B19: 1E1v18 (antibody, human IgG1, V domains shown)
VH: B1 VH with I37V, V48I
VL: B1 VL with Y36F, S43A, L46S
notes: as for B2
B20: 1E1v15 (antibody, human IgG1, V domains shown)
VH: B1 VH with I37V
VL: B1 VL with Y36F, S43A, L46S
notes: as for B2
B21: 1E1v17 (antibody, human IgG1, V domains shown)
VH: B1 VH with I37V, D74N
VL: B1 VL with Y36F, S43A, L46S
notes: as for B2
B22: 1E1v13 (antibody, human IgG1, V domains shown)
VH: B1 VH with I37V, V48I
VL: B1 VL with S43A, L46S
notes: as for B2
B23: 1E1v8 (human IgG1) (antibody, V domains shown)
VH: B1 VH
VL: B1 VL
B24: 1E1v4 (antibody, human IgG1, V domains shown)
VH: B1 VH with V48I
VL: B1 VL
notes: as for B2
B25: 1E1v23 (antibody, human IgG1, V domains shown)
VH: B1 VH with I37V, V48I
VL: B1 VL with S43A, L46S, F87Y
notes: as for B2

Residue numbers refer to the chain shown, from its start.

In one assay the target is T1, cyno IL-33 (His-tagged) (cynomolgus monkey, UniProt A0A2K5W3I1 112-269).
T1 construct: not shown: His tag
T1 sequence: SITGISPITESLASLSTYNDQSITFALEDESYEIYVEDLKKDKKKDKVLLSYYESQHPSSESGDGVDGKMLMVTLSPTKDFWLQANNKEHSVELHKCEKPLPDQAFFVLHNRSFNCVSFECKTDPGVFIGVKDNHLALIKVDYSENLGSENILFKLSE
As to the kind of experiment: SPR Biacore 8k, Fab amine-coupled to CM5 chip, His-tagged IL-33 analyte, 35 C, 1:1 Langmuir. How it is done:
(§1) The binding kinetics of the 1E1v8 Fab were measured using SPR on a BIACORE® 8k instrument (GE Healthcare). 1E1v8 Fab was directly immobilized on 4 different flow cells of a CM5 Series S sensorchip at low density using amine coupling. Antibody fragment binding was measured to human and cyno IL-33 (His-tagged) using a concentration series starting with 50 nM with 1:3 dilutions. Sensorgrams for binding of IL-33 were recorded using an injection time of 2 min with a flow rate of 100 μl/min, at a temperature of 25° C. or 35° C., and with a running buffer of 10 mM HEPES, pH 7.4, 150 mM NaCl, 3 mM EDTA, and 0.005% TWEEN®20. After injection, disassociation of the IL-33 from the antibody was monitored for 30 min in running buffer. The surface was regenerated between binding cycles with a 30 μl injection of 10 mM glycine HCl pH 1.7. After subtraction of a blank which contained running buffer only, sensorgrams observed for cytokine binding to anti-IL-33 antibody were analyzed using a 1:1 Langmuir binding model with software supplied by the manufacturer to calculate the kinetics and binding constants.
Background: Surface plasmon resonance follows binding to a sensor surface in real time, without labels.
Usually Kd stands for the constant that tells how readily two partners part at equilibrium. A low value points to tighter binding. As usually defined, the koff is the rate constant with which the complex falls apart. The kon is the second-order rate constant of association. A low value points to slower complex formation. With B1, the Kd came out at 0.0345 nM, the koff was found to be 1.82e-05 s⁻¹ and the on-rate constant (kon) came to 527000 M⁻¹ s⁻¹.

A further assay addresses T2, human IL-33 (His-tagged) (human, UniProt O95760 112-270, limits assumed).
T2 construct: not shown: His tag
T2 sequence (looked up): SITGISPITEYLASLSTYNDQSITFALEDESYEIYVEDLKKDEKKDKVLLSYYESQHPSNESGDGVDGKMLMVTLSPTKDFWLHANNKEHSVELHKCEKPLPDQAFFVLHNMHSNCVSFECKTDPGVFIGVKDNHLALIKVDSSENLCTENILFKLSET
The description is as above. How it is done:
as §1
In the case of B1, the Kd stood at 0.0148 nM, the koff was 1.26e-05 s⁻¹ and the kon was found to be 858000 M⁻¹ s⁻¹.

A further assay addresses T2, human IL-33 (His-tagged). The assay is described as follows: SPR Biacore T200, IgG captured on protein A chip, His-tagged human IL-33 analyte, 25 C, n=2; column head prints 'KD (nM)' but the E-notation cells are in M, unit corrected to M. How it is done:
A protein A sensorchip (GE Healthcare) was used following manufacturer provided protocols to capture humanized anti-IL-33 antibodies using a BIACORE® T200 instrument (GE). Antibody binding was measured to human IL-33 (His-tagged) using multi-cycle kinetics. Sensorgrams for binding of IL-33 were recorded using an injection time of 2 min with a flow rate of 30 μl/min, at a temperature of 25° C., and with a running buffer of 10 mM HEPES, pH 7.4, 150 mM NaCl, 3 mM EDTA, and 0.005% TWEEN620. After injection, disassociation of IL-33 from the antibody was monitored for 10 min in running buffer. The surface was regenerated between binding cycles with a 30 μl injection of 10 mM Glycine HCl pH 1.5. After subtraction of a blank which contained running buffer only, sensorgrams observed for cytokine binding to anti-IL-33 antibody were analyzed using a 1:1 Langmuir binding model with software supplied by the manufacturer to calculate the kinetics and binding constants.
Molecule B2 gave a Kd of 0.121 nM.

On to B3, for which the Kd was 0.148 nM.

Take B4: the affinity, expressed as Kd, was 0.132 nM.

For B5, the Kd came out at 0.163 nM.

In turn, B6 returned an equilibrium dissociation constant (Kd) of 0.149 nM.

Regarding B7, binding was put at a Kd of 0.132 nM.

In turn, B8 came in with a Kd of 0.146 nM.

B9: the Kd is 0.155 nM.

In turn, B10 yielded a dissociation constant (Kd) of 0.129 nM.

As for B11, the equilibrium dissociation constant (Kd) was 0.123 nM.

B12 registered a Kd of 0.163 nM.

With B13, the affinity, expressed as Kd, was 0.295 nM.

Consider B14, for which the equilibrium dissociation constant (Kd) amounted to 0.128 nM.

With B15, the affinity, expressed as Kd, was 0.144 nM.

B16 displayed a Kd of 0.179 nM.

In turn, B17 showed a dissociation constant (Kd) of 0.203 nM.

Turning to B18, the Kd came to 0.144 nM.

B19 yielded a dissociation constant (Kd) of 0.172 nM.

B20 had a Kd of 0.195 nM.

For B21, the dissociation constant (Kd) came to 0.285 nM.

On to B22, for which the Kd worked out at 0.14 nM.

In the case of B23, the dissociation constant (Kd) stood at 0.118 nM.

Take B24: the dissociation constant Kd worked out at 0.154 nM.

In the case of B25, the dissociation constant Kd amounted to 0.151 nM.

The target in a further assay is T1, cyno IL-33 (His-tagged). The assay is described as follows: SPR Biacore 8k, Fab amine-coupled to CM5 chip, His-tagged IL-33 analyte, 25 C, 1:1 Langmuir. How it is done: as §1
In turn, B1 had a Kd of 0.0223 nM, an off-rate (koff) of 7.85e-06 s⁻¹ and a kon of 354000 M⁻¹ s⁻¹.

For a further assay, the target named is T2, human IL-33 (His-tagged). Described as above. How it is done: as §1
B1: the Kd was 0.0147 nM, the koff came to 9.99e-06 s⁻¹ and the on-rate constant (kon) worked out at 684000 M⁻¹ s⁻¹.

The next assay deals with T3, human IL-33 (human, UniProt O95760 112-270, limits assumed).
T3 sequence (looked up): T2 sequence (looked up)
The assay is described as follows: cell-based or functional assay.
Consider B3, for which the “IC50 (M), IL-33 neutralization activity, HEK-BLUE IL-33 cells, human IL-33 at 160 pM” value (shortened to “IC50 (M), IL-33 neutralization activity”) turned out to be 2.9e-11 M.

For B5, the “IC50 (M), IL-33 neutralization activity” value amounted to 2.44e-11 M.

For B7, the “IC50 (M), IL-33 neutralization activity” value is 3.19e-11 M.

In the case of B9, the “IC50 (M), IL-33 neutralization activity” value amounted to 3.1e-11 M.

As to B10, the “IC50 (M), IL-33 neutralization activity” value stood at 3.05e-11 M.

Turning to B14, the “IC50 (M), IL-33 neutralization activity” value is 3.44e-11 M.

For the molecule B22, the “IC50 (M), IL-33 neutralization activity” value was 2.98e-11 M.

As to B23, the “IC50 (M), IL-33 neutralization activity” value turned out to be 3.11e-11 M.

In the case of B24, the “IC50 (M), IL-33 neutralization activity” value came to 3.11e-11 M.
